Measured values as given in US5871995.

Experiments:
[1] = biological target: phenylalanyl-glycyl-phenylalanyl-hydroxylglycine
[2] = biological target: phenylalanyl-glycyl-phenylalanyl-glycine

| Substance | Enzyme activity n mole/h/ml medium, PheGlyPhehydroxyGly to PheGlyPhe-NH2 + glyoxylic acid (n mole/h/ml medium) [1] | Enzyme activity n mole/h/ml medium, PheGlyPheGly to PheGlyPhehydroxyGly (n mole/h/ml medium) [2] |
| --- | --- | --- |
| Enzyme expressed from plasmid SV-a (Signal sequence + N-terminal domain) in COS-7 cells (from UniProt P14925) | < 2 | 2.8 |
| Enzyme expressed from plasmid SV-b (Signal sequence + C-terminal domain) in COS-7 cells (from UniProt P14925) | 10.8 | 0.4 |
| Enzyme expressed from plasmid SV-203 (Signal sequence + N-terminal domain + C-terminal domain) in COS-7 cells (from UniProt P14925) | 4.2 | 2.5 |
